In patent publication US20110207132:

Test system: BfuCI restriction endonuclease
Experiment: cleavage_in_vitro
Conditions: for binding signal (signal/no-template): after 25 min
[1] = phosphorothioate 5' of GATC in probe B, JP3 cleaved greater than four times faster
[2] = phosphorothioate 5' of GATC in probe B

## AGAGTCCACCAAGCTTCAGATTAG / TCTGAAGCTTTGATC / TGTAACGGAAAACCGTTACAGATCAAATTGGTGGACTCT [JP12]
Phosphorothioate 5' of GATC in probe B, average rate first 5 min, 30 C
  activity: 39 nM/min

## AGAGTCCACCAAGCTTCAGATTAG / TCTGAAGCTTTGATC / TTTTGATCAAATTGGTGGACTCTAAAA [JP9]
[1]
  binding signal: < 0.25 fold vs JP3

## AGAGTCCACCAAGCTTCAGATTAG / TCTGAAGCTTTGATC / AAAAGATCAAATTGGTGGACTCTAAAA [T1/A/B junction probe (JP2)]
NEBuffer 4, 10 mM Mg, 30 C, 5 h
  binding signal (fold vs no template): 60

## AGAGTCCACCAAGCTTCAGATTAG / TCTGAAGCTTTGATC / AAAAGATCAAATTGGTGGACTCTAAAA [JP4]
Phosphorodithioate 5' of GATC in probe B, fluorescence enhancement
  binding signal: 3 fold vs JP2

## AGAGTCCACCAAGCTTCAGATTAG / TCTGAAGCTTTGATC / TGTAACGGAAAACCGTTACAGATCATATTGGTGGACTCT [JP16]
Phosphorothioate 5' of GATC in probe B, initial rate, 30 C
  activity: 43 nM/min

## AGAGTCCACCAAGCTTCAGATTAG / TCTGAAGCTTTGATC / TGGATCGGAAAACCGATCCAGATCATATTGGTGGACTCT [JP18]
Phosphorothioate 5' of each GATC in probe B, initial rate, NEBuffer 4, 10 mM Mg, 30 C
  activity: 82 nM/min

## AGAGTCCACCAAGCTTCAGATTAG / TCTGAAGCTTTGATC / AGTAACGGAAAACCGTTACTAAAAGATCAAATTGGTGGACTCT [JP10]
[2]
  binding signal (signal/no-template): 4.7

## AGAGTCCACCAAGCTTCAGATTAG / TCTGAAGCTTTGATC / AAAAGATCAAATTGGTGGACTCTAAAA [JP3]
Phosphorothioate 5' of GATC in probe B, average rate first 5 min, 7-fold signal enhancement over JP2
  activity: 0.9 nM/min

## AGAGTCCACCAAGCTTCAGATTAG / TCTGAAGCTTTGATC / AGTAACGGAAAACCGTTACTAAAAGATCAATTTGGTGGACTCT [JP13]
[2]
  binding signal (signal/no-template): 13.5

## AGAGTCCACCAAGCTTCAGATTAG / TCTGAAGCTTTGATC / GGGGGATCAAATTGGTGGACTCTAAAA [JP7]
[1]
  binding signal: < 0.25 fold vs JP3

## AGAGTCCACCAAGCTTCAGATTAG / TCTGAAGCTTTGATC / AGTAACGGAAAACCGTTACTAAAAGATCATATTGGTGGACTCT [JP14]
[2]
  binding signal (signal/no-template): 9

## AGAGTCCACCAAGCTTCAGATTAG / TCTGAAGCTTTGATC / CCCCGATCAAATTGGTGGACTCTAAAA [JP8]
[1]
  binding signal: < 0.25 fold vs JP3
